Laboratory results taken from PMC8567202, “Phosphoinositide-binding activity of Smad2 is essential for its function in TGF-β signaling” (The Journal of Biological Chemistry, 2021).
Entries after “also recorded” stand apart in the source; their conditions may differ.

Assays:
[1] = system: TβRI GS region peptide (F-Ahx-YDMTTpSGpSGpSGLPLL); experiment: Fluorescence anisotropy binding to TβRI GS peptide; settings: fluorescence anisotropy; for Kd: 20 mM Tris, pH 7.9, 160 mM NaCl, 10-min incubation, average ±S.D., n = 3, read-out: Kd for peptide binding, GS peptide
Text: (§1) However, this tentative assignment has been confirmed neither by a high-resolution structure of the Smad2-TβRI complex nor by a quantitative and systematic binding study, leaving uncertainty about the exact nature of the Smad2-TβRI-binding interface. Since the L3 loop is a part of the newly identified PI(4,5)P2-binding site, we checked if these PI(4,5)P2-binding residues are also involved in the Smad2-TβRI interaction using two fluorescein-labeled synthetic peptides derived from the GS region (i.e., GS peptide: fluorescein-aminohexanoyl (F-Ahx)-YDMTTpSGpSGpSGLPLL) and the L45 loop (i.e., L45 peptide: F-Ahx-ADNKDNGT), respectively. In particular, the GS peptide represents the GS motif triply phosphorylated by TβRII. We then measured binding to Smad2 WT and mutants to these peptides by fluorescence anisotropy according to our established protocol ([21]). […] We thus primarily used the GS peptide to assess the effects of mutations on the Smad2-TβRI interaction. […] They also yielded distinct structural variants for further functional studies. Specifically, W422A and Y426A could serve as specific PI(4,5)P2 binding-compromised mutants and K420A as a predominantly TβRI binding-compromised mutant. R427A/R428A could also serve as a PI(4,5)P2 and TβRI binding-compromised mutant, whereas E425K as a PI(4,5)P2 and TβRI binding-enhanced mutant.
(§2) Figure 3 Affinity of Smad2 WT and mutants for TβRI-derived peptides determined by fluorescence anisotropy.A, binding of Smad2 WT (black), W422A (red), Y420A (cyan), R427A/R428A (green), K420A (blue), and E425K (orange) to the GS peptide (F-Ahx-YDMTTpSGpSGpSGLPLL). […] B, binding of Smad2 WT (black), W422A (red), Y420A (cyan), R427A/R428A (green), K420A (blue), and E425K (orange) to the L45 loop peptide (F-Ahx-DNKDNGT). C, effects of 50 μM POPC/POPS/PI(4,5)P2 (77:20:3) LUVs on binding of Smad2 to the GS peptide. The presence of vesicles (orange) raises the Kd value from 20 ± 6 to 60 ± 7 nM. The peptide concentration was fixed at 2.5 nM, and the Smad2 concentration was varied from 0 to 150 μM. The experimentally observed anisotropy (A) values were normalized (Anorm) using the equation: Anorm = (A − Amin)/(Amax − Amin) where Amax and Amin are maximal and minimal A values, respectively, for each measurement. The plots of Anormversus [Smad2] were analyzed by the nonlinear least-squares analysis using the equation: Anorm = 1/(1 + Kd/[Smad2]).
(§3) The fluorescein-6-aminohexanoyl (F-Ahx)-labeled TβRI GS region peptide (F-Ahx-YDMTTpSGpSGpSGLPLL) was dissolved in dimethyl sulfoxide to yield 1 mg/ml stock solution, F-Ahx-labeled TβRI L45 loop region peptide (F-Ahx-ADNKDNGT) was dissolved in a 3:1 mixture of water and acetonitrile to yield 2.5 mg/ml stock solution. Both peptide solutions were diluted to 1 to 10 μM with 20 mM Tris buffer, pH 7.9, containing 160 mM NaCl for binding studies. In total, 300 μl of the Smad2 (WT or mutant) solution (0–250 μM) was added to a series of 1.5 ml microcentrifuge containing the peptide solution (2.5 μM). After 10-min incubation in the dark, the mixture was transferred to a quartz cuvette with 2-mm path length and fluorescence anisotropy (r) was measured with excitation and emission wavelengths set at 485 and 535 nm, respectively, using Horiba Flurolog-3 spectrofluorometer. Since Po >> Pepo under our conditions, the Kd for the Smad2-peptide binding was determined by the nonlinear least-squares analysis of the binding isotherm using the Equation 1:(1) Pepbound/Pep0=Δr/Δrmax=1/1+kd/P0 where Pepbound, Pep0, and P0 indicate the concentration of bound peptide, total peptide, and total Smad2, respectively, and Δr and Δrmax are the anisotropy change for each P0 and the maximal Δr, respectively.

[2] = system: TβRI L45 loop region peptide (F-Ahx-ADNKDNGT); experiment: Fluorescence anisotropy binding to TβRI L45 peptide; settings: for Kd: 20 mM Tris, pH 7.9, 160 mM NaCl, 10-min incubation, average ±S.D., n = 3
Text: as §1, §2, §3

B1: Smad2-W422A: W422A mutant of full-length Smad2; specific PI(4,5)P2 binding-compromised (protein)
chain: MSSILPFTPPVVKRLLGWKKSAGGSGGAGGGEQNGQEEKWCEKAVKSLVKKLKKTGRLDELEKAITTQNCNTKCVTIPSTCSEIWGLSTANTVDQWDTTGLYSFSEQTRSLDGRLQVSHRKGLPHVIYCRLWRWPDLHSHHELKAIENCEYAFNLKKDEVCVNPYHYQRVETPVLPPVLVPRHTEILTELPPLDDYTHSIPENTNFPAGIEPQSNYIPETPPPGYISEDGETSDQQLNQSMDTGSPAELSPTTLSPVNHSLDLQPVTYSEPAFWCSIAYYELNQRVGETFHASQPSLTVDGFTDPSNSERFCLGLLSNVNRNATVEMTRRHIGRGVRLYYIGGEVFAECLSDSAIFVQSPNCNQRYGWHPATVCKIPPGCNLKIFNNQEFAALLAQSVNQGFEAVYQLTRMCTIRMSFVKGAGAEYRRQTVTSTPCWIELHLNGPLQWLDKVLTQMGSPSVRCSSMS
modifications: left off: His6, N-terminal, state not stated
- GS peptide affinity relative to WT [1]: essentially the same affinity as the WT; also recorded: essentially identical binding curves
- Kd [1]: 21 ± 5 µM
- L45 peptide affinity relative to WT [2]: WT-like affinity
- Kd [2]: 67 ± 6 µM

B2: Smad2-E425K: charge-reversal mutant of full-length Smad2; PI(4,5)P2 and TβRI binding-enhanced (protein)
chain: MSSILPFTPPVVKRLLGWKKSAGGSGGAGGGEQNGQEEKWCEKAVKSLVKKLKKTGRLDELEKAITTQNCNTKCVTIPSTCSEIWGLSTANTVDQWDTTGLYSFSEQTRSLDGRLQVSHRKGLPHVIYCRLWRWPDLHSHHELKAIENCEYAFNLKKDEVCVNPYHYQRVETPVLPPVLVPRHTEILTELPPLDDYTHSIPENTNFPAGIEPQSNYIPETPPPGYISEDGETSDQQLNQSMDTGSPAELSPTTLSPVNHSLDLQPVTYSEPAFWCSIAYYELNQRVGETFHASQPSLTVDGFTDPSNSERFCLGLLSNVNRNATVEMTRRHIGRGVRLYYIGGEVFAECLSDSAIFVQSPNCNQRYGWHPATVCKIPPGCNLKIFNNQEFAALLAQSVNQGFEAVYQLTRMCTIRMSFVKGWGAKYRRQTVTSTPCWIELHLNGPLQWLDKVLTQMGSPSVRCSSMS
modifications: left off: His6, N-terminal, state not stated
- GS peptide affinity relative to WT [1]: twofold higher affinity
- Kd [1]: 8 ± 0.8 µM
- L45 peptide affinity relative to WT [2]: slightly higher affinity
- Kd [2]: 55 ± 3 µM

B3: Smad2-Y426A: Y426A mutant of full-length Smad2; specific PI(4,5)P2 binding-compromised (protein)
chain: MSSILPFTPPVVKRLLGWKKSAGGSGGAGGGEQNGQEEKWCEKAVKSLVKKLKKTGRLDELEKAITTQNCNTKCVTIPSTCSEIWGLSTANTVDQWDTTGLYSFSEQTRSLDGRLQVSHRKGLPHVIYCRLWRWPDLHSHHELKAIENCEYAFNLKKDEVCVNPYHYQRVETPVLPPVLVPRHTEILTELPPLDDYTHSIPENTNFPAGIEPQSNYIPETPPPGYISEDGETSDQQLNQSMDTGSPAELSPTTLSPVNHSLDLQPVTYSEPAFWCSIAYYELNQRVGETFHASQPSLTVDGFTDPSNSERFCLGLLSNVNRNATVEMTRRHIGRGVRLYYIGGEVFAECLSDSAIFVQSPNCNQRYGWHPATVCKIPPGCNLKIFNNQEFAALLAQSVNQGFEAVYQLTRMCTIRMSFVKGWGAEARRQTVTSTPCWIELHLNGPLQWLDKVLTQMGSPSVRCSSMS
modifications: left off: His6, N-terminal, state not stated
- GS peptide affinity relative to WT [1]: essentially the same affinity as the WT
- Kd [1]: 20 ± 3 µM
- GS peptide affinity relative to WT ([1]; listed as Y420A): essentially identical binding curves
- L45 peptide affinity relative to WT [2]: WT-like affinity
- Kd [2]: 70 ± 7 µM

B4: Smad2-K420A: K420A mutant of full-length Smad2; predominantly TβRI binding-compromised (protein)
chain: MSSILPFTPPVVKRLLGWKKSAGGSGGAGGGEQNGQEEKWCEKAVKSLVKKLKKTGRLDELEKAITTQNCNTKCVTIPSTCSEIWGLSTANTVDQWDTTGLYSFSEQTRSLDGRLQVSHRKGLPHVIYCRLWRWPDLHSHHELKAIENCEYAFNLKKDEVCVNPYHYQRVETPVLPPVLVPRHTEILTELPPLDDYTHSIPENTNFPAGIEPQSNYIPETPPPGYISEDGETSDQQLNQSMDTGSPAELSPTTLSPVNHSLDLQPVTYSEPAFWCSIAYYELNQRVGETFHASQPSLTVDGFTDPSNSERFCLGLLSNVNRNATVEMTRRHIGRGVRLYYIGGEVFAECLSDSAIFVQSPNCNQRYGWHPATVCKIPPGCNLKIFNNQEFAALLAQSVNQGFEAVYQLTRMCTIRMSFVAGWGAEYRRQTVTSTPCWIELHLNGPLQWLDKVLTQMGSPSVRCSSMS
modifications: left off: His6, N-terminal, state not stated
- GS peptide affinity relative to WT [1]: tenfold decrease; also recorded: tenfold lower affinity than the WT
- Kd [1]: 200 ± 48 µM
- L45 peptide affinity relative to WT [2]: lowest affinity
- Kd [2]: 100 ± 16 µM

B5: Smad2- R427A/R428A: double mutant of full-length Smad2; PI(4,5)P2 and TβRI binding-compromised (protein)
chain: MSSILPFTPPVVKRLLGWKKSAGGSGGAGGGEQNGQEEKWCEKAVKSLVKKLKKTGRLDELEKAITTQNCNTKCVTIPSTCSEIWGLSTANTVDQWDTTGLYSFSEQTRSLDGRLQVSHRKGLPHVIYCRLWRWPDLHSHHELKAIENCEYAFNLKKDEVCVNPYHYQRVETPVLPPVLVPRHTEILTELPPLDDYTHSIPENTNFPAGIEPQSNYIPETPPPGYISEDGETSDQQLNQSMDTGSPAELSPTTLSPVNHSLDLQPVTYSEPAFWCSIAYYELNQRVGETFHASQPSLTVDGFTDPSNSERFCLGLLSNVNRNATVEMTRRHIGRGVRLYYIGGEVFAECLSDSAIFVQSPNCNQRYGWHPATVCKIPPGCNLKIFNNQEFAALLAQSVNQGFEAVYQLTRMCTIRMSFVKGWGAEYAAQTVTSTPCWIELHLNGPLQWLDKVLTQMGSPSVRCSSMS
modifications: left off: His6, N-terminal, state not stated
- GS peptide affinity relative to WT [1]: twofold lower affinity than the WT
- Kd [1]: 44 ± 4 µM
- L45 peptide affinity relative to WT [2]: slightly lower affinity
- Kd [2]: 75 ± 11 µM
